Assays:
Islr2, AVEXIS protein = assay: method not stated; the filers' own unpublished determination ('in preparation'), used to calibrate the AVEXIS screen
[1] = target: biotinylated recombinant human DCC (human) (UniProt P43146); assay: AVEXIS, prey on bait DCC; white = No binding
[2] = target: human DRAXIN, AVEXIS prey or bait protein (human) (UniProt Q8NBI3); assay: AVEXIS, prey on bait hDRAXIN, lower value; black = Binding
[3] = target: human DRAXIN, AVEXIS prey or bait protein (human) (UniProt Q8NBI3); assay: AVEXIS, prey on bait hDRAXIN, upper value; black = Binding
[4] = target: zebrafish DraxinA, AVEXIS prey or bait protein (zebrafish) (UniProt Q4V9H3); assay: AVEXIS, prey on bait zDraxinA, lower value; black = Binding
Sequence of zebrafish DraxinA, AVEXIS prey or bait protein (zebrafish) (Q4V9H3 other isoform, or with tags, fused parts or gaps): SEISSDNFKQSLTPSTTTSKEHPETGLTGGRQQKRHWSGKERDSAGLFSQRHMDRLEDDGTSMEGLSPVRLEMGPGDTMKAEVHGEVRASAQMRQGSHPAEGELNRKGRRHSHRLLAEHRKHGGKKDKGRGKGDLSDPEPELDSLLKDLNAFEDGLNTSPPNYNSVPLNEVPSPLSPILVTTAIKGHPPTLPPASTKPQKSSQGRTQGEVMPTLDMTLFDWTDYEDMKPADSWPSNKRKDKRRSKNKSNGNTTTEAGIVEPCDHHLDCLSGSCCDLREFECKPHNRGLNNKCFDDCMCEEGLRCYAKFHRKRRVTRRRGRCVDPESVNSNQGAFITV

[5] = target: zebrafish DraxinA, AVEXIS prey or bait protein (zebrafish) (UniProt Q4V9H3); assay: AVEXIS, prey on bait zDraxinA, upper value; black = Binding
[6] = target: zebrafish DraxinB, AVEXIS protein (zebrafish); assay: AVEXIS, prey on bait zDraxinB, lower value; black = Binding
[7] = target: zebrafish DraxinB, AVEXIS protein (zebrafish); assay: AVEXIS, prey on bait zDraxinB, upper value; black = Binding
[8] = target: human Netrin1, recombinant AVEXIS protein (biotinylated when immobilised) (human) (UniProt O95631); assay: AVEXIS, prey on bait hNETRIN1, lower value; white = No binding
[9] = target: human Netrin1, recombinant AVEXIS protein (biotinylated when immobilised) (human) (UniProt O95631); assay: AVEXIS, prey on bait hNETRIN1, upper value; white = No binding
[10] = target: zebrafish Netrin1a, AVEXIS bait or prey protein (zebrafish); assay: AVEXIS, prey on bait zNetrin1a, lower value; white = No binding
[11] = target: zebrafish Netrin1a, AVEXIS bait or prey protein (zebrafish); assay: AVEXIS, prey on bait zNetrin1a, upper value; white = No binding
[12] = target: zebrafish Netrin1a, AVEXIS bait or prey protein (zebrafish); assay: AVEXIS, prey on bait zNetrin1a, lower value; grey = Weak binding
[13] = target: zebrafish Netrin1a, AVEXIS bait or prey protein (zebrafish); assay: AVEXIS, prey on bait zNetrin1a, upper value; grey = Weak binding
[14] = target: human Netrin1, recombinant AVEXIS protein (biotinylated when immobilised) (human) (UniProt O95631); assay: AVEXIS, prey on bait NTN1; dark = Binding
[15] = target: human Netrin-3, AVEXIS protein (human) (UniProt O00634); assay: AVEXIS, prey on bait NTN3; white = No binding
Sequence of human Netrin-3, AVEXIS protein (human) (O00634 28-580): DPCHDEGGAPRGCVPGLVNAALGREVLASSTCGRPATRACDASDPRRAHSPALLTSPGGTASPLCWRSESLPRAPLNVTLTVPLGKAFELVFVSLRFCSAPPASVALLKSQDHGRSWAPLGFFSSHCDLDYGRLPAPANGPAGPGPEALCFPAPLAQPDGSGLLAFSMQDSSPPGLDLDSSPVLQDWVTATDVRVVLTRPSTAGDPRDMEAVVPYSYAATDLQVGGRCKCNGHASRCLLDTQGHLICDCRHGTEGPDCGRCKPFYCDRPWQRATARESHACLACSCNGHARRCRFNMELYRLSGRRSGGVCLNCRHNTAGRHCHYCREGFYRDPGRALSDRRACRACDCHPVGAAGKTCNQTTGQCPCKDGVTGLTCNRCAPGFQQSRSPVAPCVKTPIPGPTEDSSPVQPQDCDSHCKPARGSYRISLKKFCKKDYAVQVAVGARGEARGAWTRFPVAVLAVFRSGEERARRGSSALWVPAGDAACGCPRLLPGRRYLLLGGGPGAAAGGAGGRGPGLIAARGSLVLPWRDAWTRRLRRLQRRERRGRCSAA

[16] = target: human Netrin-4, AVEXIS protein (human) (UniProt Q9HB63); assay: AVEXIS, prey on bait NTN4; white = No binding
Sequence of human Netrin-4, AVEXIS protein (human) (Q9HB63 19-628): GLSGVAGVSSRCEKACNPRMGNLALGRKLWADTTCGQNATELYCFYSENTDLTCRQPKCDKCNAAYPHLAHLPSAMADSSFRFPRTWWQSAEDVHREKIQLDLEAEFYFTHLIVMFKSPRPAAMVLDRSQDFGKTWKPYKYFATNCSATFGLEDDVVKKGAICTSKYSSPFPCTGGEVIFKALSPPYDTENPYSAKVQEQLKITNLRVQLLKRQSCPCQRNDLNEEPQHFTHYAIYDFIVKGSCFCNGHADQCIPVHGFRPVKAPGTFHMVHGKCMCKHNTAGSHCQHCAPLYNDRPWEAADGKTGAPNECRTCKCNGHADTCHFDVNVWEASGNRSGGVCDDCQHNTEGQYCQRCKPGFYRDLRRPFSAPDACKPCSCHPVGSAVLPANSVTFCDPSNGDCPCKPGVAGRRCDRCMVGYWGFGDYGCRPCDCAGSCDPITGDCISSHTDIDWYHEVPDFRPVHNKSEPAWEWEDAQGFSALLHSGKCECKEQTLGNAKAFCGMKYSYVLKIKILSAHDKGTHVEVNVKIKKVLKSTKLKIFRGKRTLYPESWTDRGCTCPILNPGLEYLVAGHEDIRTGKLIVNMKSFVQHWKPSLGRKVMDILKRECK

[17] = target: human Netrin-G1, AVEXIS protein (human) (UniProt Q9Y2I2); assay: AVEXIS, prey on bait NTNG1; white = No binding
Sequence of human Netrin-G1, AVEXIS protein (human) (Q9Y2I2 29-510): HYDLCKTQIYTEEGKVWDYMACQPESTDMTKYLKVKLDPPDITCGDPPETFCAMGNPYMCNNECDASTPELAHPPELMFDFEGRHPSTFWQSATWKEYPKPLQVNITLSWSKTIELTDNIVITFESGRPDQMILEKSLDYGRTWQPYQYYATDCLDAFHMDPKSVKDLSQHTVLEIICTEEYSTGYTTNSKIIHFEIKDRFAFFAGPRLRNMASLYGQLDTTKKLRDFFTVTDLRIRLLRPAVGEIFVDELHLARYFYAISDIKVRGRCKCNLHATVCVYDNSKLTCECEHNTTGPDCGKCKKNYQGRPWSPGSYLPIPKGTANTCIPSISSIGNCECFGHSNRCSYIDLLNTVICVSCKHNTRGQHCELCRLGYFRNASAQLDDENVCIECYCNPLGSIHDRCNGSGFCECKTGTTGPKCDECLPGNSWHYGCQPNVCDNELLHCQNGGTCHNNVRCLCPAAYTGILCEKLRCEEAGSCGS

[18] = target: human Netrin-G2, AVEXIS protein (human) (UniProt Q96CW9); assay: AVEXIS, prey on bait NTNG2; white = No binding
Sequence of human Netrin-G2, AVEXIS protein (human) (Q96CW9 18-507): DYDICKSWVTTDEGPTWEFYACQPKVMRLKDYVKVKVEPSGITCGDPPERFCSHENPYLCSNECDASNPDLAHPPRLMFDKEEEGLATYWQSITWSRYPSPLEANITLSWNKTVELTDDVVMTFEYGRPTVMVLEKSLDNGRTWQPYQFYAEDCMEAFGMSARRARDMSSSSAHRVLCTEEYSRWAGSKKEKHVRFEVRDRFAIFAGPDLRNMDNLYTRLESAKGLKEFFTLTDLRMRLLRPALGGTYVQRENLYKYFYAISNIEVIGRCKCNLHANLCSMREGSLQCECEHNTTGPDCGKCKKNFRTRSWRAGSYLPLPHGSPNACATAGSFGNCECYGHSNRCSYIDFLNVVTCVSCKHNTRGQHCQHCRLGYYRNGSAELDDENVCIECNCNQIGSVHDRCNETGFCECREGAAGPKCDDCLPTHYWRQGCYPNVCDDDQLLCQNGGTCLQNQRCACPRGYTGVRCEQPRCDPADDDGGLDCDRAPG

[19] = target: biotinylated recombinant human UNC5B (human) (UniProt Q8IZJ1); assay: AVEXIS, prey on bait UNC5B; white = No binding
[20] = target: human DRAXIN, AVEXIS prey or bait protein (human) (UniProt Q8NBI3); assay: AVEXIS, prey on bait DRAXIN; white = No binding
[21] = target: human DRAXIN 21 amino acid Netrin binding fragment, AVEXIS prey or bait protein (human); assay: AVEXIS, prey on bait DRAXIN 21aa; white = No binding
Sequence of human DRAXIN 21 amino acid Netrin binding fragment, AVEXIS prey or bait protein (human) (peptide, as listed by the source): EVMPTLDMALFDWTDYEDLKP

[22] = target: Matn4 ECD, mono-biotinylated bait protein (positive control); assay: AVEXIS, prey on bait Matn4 (+), positive control for the prey; dark = Binding

Sequence of human DRAXIN, AVEXIS prey or bait protein (human) (Q8NBI3 26-349): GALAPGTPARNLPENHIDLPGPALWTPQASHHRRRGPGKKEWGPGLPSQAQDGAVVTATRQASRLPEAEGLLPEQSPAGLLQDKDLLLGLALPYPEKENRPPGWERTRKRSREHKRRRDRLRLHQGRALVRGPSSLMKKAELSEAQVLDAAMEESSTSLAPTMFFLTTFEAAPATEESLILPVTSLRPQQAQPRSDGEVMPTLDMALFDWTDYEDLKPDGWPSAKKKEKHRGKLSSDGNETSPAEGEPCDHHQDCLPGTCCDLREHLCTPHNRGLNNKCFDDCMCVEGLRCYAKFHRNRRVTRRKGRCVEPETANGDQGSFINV
Sequence of human Netrin-3, AVEXIS protein, O00634 28-580 (ligand; other documents disagree on this pair) (O00634 28-580): as the sequence (O00634 28-580) above

A Kd (Islr2, AVEXIS protein) of 12 µM and a half-life (t½) (Islr2, AVEXIS protein) of 0.16 s were found for Vasn (Slit-like2), AVEXIS protein in this work.
An A486nm [1] of 0.067 was found for “human Netrin-3, AVEXIS protein (from UniProt O00634 28-580) (ligand)” in this work.
An A486nm [1] of 0.064 was found for “biotinylated recombinant human UNC5B (from UniProt Q8IZJ1 27-377) (receptor)” in this work.
An A486nm [2] of 0.249, an A486nm [3] of 0.136 and an A486nm [4] of 0.276 were found for “zebrafish Netrin1a, AVEXIS bait or prey protein (ligand)” in this work. It also gave an A486nm [5] of 0.323, an A486nm [6] of 0.174 and an A486nm [7] of 0.235. The A486nm [8] was 0.059, the A486nm [9] was 0.064 and the A486nm [10] was 0.063. For the same substance, the A486nm [11] was 0.064.
An A486nm [12] of 0.084 and an A486nm [13] of 0.103 were found for “zebrafish DraxinB, AVEXIS protein (ligand)” in this work.
An A486nm [14] of 0.377, an A486nm [1] of 0.065 and an A486nm [15] of 0.076 were found for “biotinylated recombinant human DCC (from UniProt P43146 26-1097) (receptor)” in this work. The A486nm [16] was 0.064, the A486nm [17] was 0.065 and the A486nm [18] was 0.061. For the same substance, the A486nm [19] was 0.062, the A486nm [20] was 0.064 and the A486nm [21] was 0.062. It also gave an A486nm [22] of 0.278.
An A486nm [19] of 0.066 was found for “human Netrin-3, AVEXIS protein, O00634 28-580 (ligand; other documents disagree on this pair)” in this work.

Reference: patent US20160347802A1
